Test results: a protein production outcome set (Wang et al. 2014)

Assay: label from the status in PepcDB records

Sequence	protein production
MQVEREENRKEVYEMKKETTGSKKVENGMEQEILNGQQPHWEKVFSNTCSRFGDEPSYPARKAAAIFEKEGKKKILELGGGQGRDTCFFASRGFSVHSLDYTESGTKAMKEKAEESGFGKYVTALRHDARNPLPFEAETFDACYSHMLYCMALTTDELEFLCKEIKRVLKPGGINIYTARHTGDAHYGTGTHRGEDMYEIAGGFIVHFFSREKVENLAKEYGSFELEEFEEGELPRKLYMVTMRK	failed
MQVPKVTLNNGVEMPILGYGVFQIPPEKTEECVYEAIKVGYRLIDTAASYMNEEGVGRAIKRAIDEGIVRREELFVTTKLWVSDVGYESTKKAFEKSLKKLQLEYIDLYLIHQPFGDVHCAWKAMEEMYKDGLVRAIGVSNFYPDRLMDLMVHHEIVPAVNQIEIHPFYQRQEEIEFMRNYNIQPEAWGPFAEGRKNIFQNGVLRSIAEKYGKTVAQVILRWLTQKGIVAIPKTVRRERMKENISIFDFELTQEDMEKIATLDEGQSAFFSHRDPEVVKWICSLKR	not failed
MQVQELVGIVPWNFIATICNLFIQVYLIKRFLFKPVNEMLEKRRAKADAEIQDAVKAKEEAEVMKAEYEKNMQEAKEKANDIVLTAQKTAAVQSEEMLKEASSQVTAMKEKAEKDIAQERRKAVNEIKGEIGGMAVEIAGKVIEREINEEDHTKLINDFIENVGEAS	not failed
MQVRAVFFARLRREVGLEELTLDVPDGADVRAVAEHLEQERGVSLRGCMVAVNETYASPEHLLREGDEVAFLPPVAGGAPEDEADADTHCRVTADPLSLSEADAFLVKPEYGAQAYFMGTVRSPNQGQVVEYIDYEAFAPMAEKVMREAAALARERHGELRVWIEHRTGRLTPAVASIVIGVASPHRRPALEACDFLIEHLKIELPIWKHEADGRGEHWVKGTTGHDTL	failed
MQWPPPWRRSPLVSATPPPGPTRGLLCPRRVSEAGDSSTEGARTGHSHYVTPAESAMEGRSQPLPSLRPASPTNAPAHGRGSDCTAKEPPLANVCRQNYGAAQDPVELAGRRSASHVTGSSLGKAEVACGRRWRWAELLADTSWSPAGRATEMKVKMLSRNPDNYVRETKLDLQRVPRNYDPALHPFEVPREYVRALNATKLERVFAKPFLASLDGHRDGVNCLAKHPEKLATVLSGACDGEVRIWNLTQRNCIRTIQAHEGFVRGICTRFCGTSFFTVGDDKTVKQWKMDGPGYGDEEEPLHTILGKTVYTGIDHHWKEAVFATCGQQVDIWDEQRTNPICSMTWGFDSISSVKFNPIETFLLGSCASDRNIVLYDMRQATPLKKVILDMRTNTICWNPMEAFIFTAANEDYNLYTFDMRALDTPVMVHMDHVSAVLDVDYSPTGKEFVSASFDKSIRIFPVDKSRSREVYHTKRMQHVICVKWTSDSKYIMCGSDEMNIRLWKANASEKLGVLTSREKAAKDYNQKLKEKFQHYPHIKRIARHRHLPKSIYSQIQEQRIMKEARRRKEVNRIKHSKPGSVPLVSEKKKHVVAVVK	failed
MQYSSFGEKFNRYSGITQLMDDLNDGLRTPGAIMLGGGNPAAIPAMLDYFHNTSAEMLADGSLLNAMTNYDGPQGKDVFVKSLATLLRETYGWNISEKNITLTNGSQSGFFYLFNLFAGKQPDGAHKKILLPLAPEYIGYGDAGIDDDIFVSYRPEIELLDQGLFKYHVDFSELKVDESVAAICVSRPTNPTGNVLTEEEIHKLDQLARDNGVPLIIDNAYGVPFPNIIFEDIEPFWNDNTILCMSLSKLGLPGLRCGIVIANEAVTQALTNMNGIISLAPGSMGPALVQRMIEKGDLLRLSEQVIKPFYRQKAQHAVELLQSAITDPRFRIHKPEGAIFLWLWFDELPITTMELYQRLKARGVLIVPGEYFFIGQPQEWPHAHECLRMNYVQNEQAMEQGIAIIAEEVQKAYQQANV	failed
MRAGSGQCTGAAMDRLTEMEAFAMVVDQGGFTDAARKMGISKSAVSKHVSALEARLGARLLNRTTRRVSPTEIGLAYYDRARRVLTDAGEADALVTSMQTAPSGHLRLSVATDFGVALLAPILAEFLLDYPDITVTMVLNNRSVELISEGFDMAIRVGDLEDSSLRARKLTETTRRMIASPGYLQRHGRPMKIDDLTDHRLLYHSTQAHGNVWRLLSPSGEPRQVRAPGFLTVNDGHSLLKAAVSGLGIAHLPEFLFAEAMRAGLVEEVLPDLPVETLGIHAIYPAGRFTQPKVRAFIDFLVRRFLEKGPIGN	failed
MRAIAIVLARSSSKRIKNKNIIDFFNKPMLAYPIEVALNSKLFEKVFISSDSMEYVNLAKNYGASFLNLRPKILADDRATTLEVMAYHMEELELKDEDIACCLYGASALLQEKHLKNAFETLNKNQNTDYVFTCSPFSASPYRSFSLENGVQMAFKEHSNTRTQDLKTLYHDAGLLYMGKAQAFKEMRPIFSQNSIALELSPLEVQDIAHFRRFRISQAQIQPFEKRMPVKILCDCFLTSGLGHVRRCEKILSFIEKLGVEASLYLHKQNNISAFLEGVGGNDFLITDSYCLNSKDFYLLKEKAKSLMVIEDTEHAKGFYPKNTKILNFTLNALKHYHHLSKDYQYYLGVGFYPVDARFIYDRPINTENKEVLITLGGSEQKTLKEIVKILENKNVNLHIISPYTPKNPPKNTHYYSPLNPLEFSSLMKSCACAISAAGQTLYELALSQTPSLILPIASNQIIQSKEFESLGIFKQTSLKTLAKDFENLQIQKNQAWAKNLVFGDKLEGALREFLEI	failed
MRALALICVVWVCWRESCARHGTEDSSESGLRYAYTLVVDGTANTRRCFGTGHVDGEAFVGYSNNKTHGIGRWVNASHVEEENKEFVRQCKELQAELDKMQNNSKVIGVKTVQLDVGCTSKIEKHYAYDGNETEDDTATSASERDRDCQKKLTEYRKLVLASAVSPQLEVERRSSGREGGMRLRCFARDYYPADLEIRWWKDDGGGGALPQTSKQHHDPLPSGNGLYQKHIDVYVDGGLEHVYSCRVKGIATGLELQIVRWKGYARGAGNSVVLLALFIPASVMAAVVVGSVLIRKKSKEQRKTRRRFGRRSGHEPKRPSYQVKRRAEPPCDLPMTIWFRGDNVMSTQVEACPAYAVTMSARELSDAWSNGDGPIVTVPDPSI	not failed
MRAPLSTYRRPQRTDFVTPTGGPFFAKQDKALNTIDLKMAHDLKLRGYRVKVAVVDEGVRSDHPLLNVEKKYGGDYMADGTRTYPDPKRQGRHGTSVALVLAGQDTDTYRGGVAPNADLYSANIGTRAGHVSDEAAFHAWNDLLGHGIKIFNNSFATEGPEGEQRVKEDRNEYHSAANKQNTYIGRLDRLVRDGALLIFAAGNGRPSGRAYSEVGSVGRTPRVEPHLQRGLIVVTAVDENGRLETWANRCGQAQQWCLAAPSTAYLPGLDKDNPDSIHVEQGTSLSAPLVTGAAVLVQDRFRWMDNDNLRTTLLTTAQDKGPYGVDPQYGWGVLDVGRAVQGPAQFAFGDFVARVTDTSTFGLEHHHHHH	failed
MRASQSAIFRRIDPFAILSFTIPLAVYLLTLAPSVTFFDSGEFITAIHSLGTAHSPGYPLFVNYGKPFTWLPFGNIAFRVNIATAVSASAACFAVYFLTHYLLKREELVPDLRFSDTFARLCGLAAALAFAFSARLWLQSNHDKPYPLVAFMTAMVFYLLVTWRERYDEGEMRPSHIYLGAFICGLATGAHQTIVLMLPAYAWLILSKNWRLAARVKELALTVAFGLMGFAIQLHMPIRAMRNPLLNWGDPRTLDLFLWNFLRKGYPVEPPDRNLALAWQQLSAFNLPREFTWVGLVLLLVGIGAFFTRRRDEIIAYLLAIVCSLLVIVGYFNTPGDLIFLTEEFFTPIYLLSAVFIGLGLFTLLRLALRNNPVEKLRTVPIKLMAGLLLLVLPSAICAMNYYENDQHENYVAFDYATNTLRSLSPGAVLFTWGDSGAFPLWYLQGVERMREDLDLLHTPHLVFDWYLDAFPHLFGRSVLRTMPERRQSSEVALKLAVAEQIVSRPVFIDFSTRYSLPFAEYGLKQRGICYQLINDGGSVLRPPDLAVWRLYASRGYTSQMGFRDLDTGKAILIYASCRMEAGEILLRMGYRQQGAEELSAAAAIAPELRAQVEQVLAAYGAR	failed
MRASTLLIIAGMFIVSLYALIEVSFYSSQVTVHRPDVRAPVIEVPSINLTETINNRSVFYGVYHEPMSYPPGNRTVILFGHRTLYGSPFLHLDKLRAGDSVYLNWPGVGFAEYRVNRSFIVPASYQMPVNQGAKLFLITCHPLGSTRERLIVECHLEGIRPYQRNVRVDNPKSYYSIPIILGFLSAGLLVTRFYPVEEDRRFLLAAVIGLTVFLVLGYLFPIPPEFISDKLMEFNNILGI	failed
MRATEDHTIFDRGVGQRDQLQRLWTPYRMNYLAEAPVKRDPNSSASPAQPFTEIPQLSDEEGLVVARGKLVYAVLNLYPYNPGHLMVVPYRRVSELEDLTDLESAELMAFTQKAIRVIKNVSRPHGFNVGLNLGTSAGGSLAEHLHVHVVPRWGGDANFITIIGGSKLEHHHHHH	failed
MRDALHVTADDADATDDAIPDSRETGVTGVVLAGGLSTRLGHDKAVIRLHGEQGPDLLVRTAALLEPLVDEVWISCRPGRCVTGPYLRIYDEVQGLGPFGGVMTALRAAQGPVLVLSCDLPFMERTLLERLLERRGARHPEALMTTFRQEETGFIESLVAVYEYACLPFFEDALTDGVHKLSRVIPAERREDIVYTQNEALPFFNVNYPADLEMARRIIGALLEHHHHHH	failed
MRDALLGALDAGAVCVNVDLAHAGQQAKLEPDTPYGDALGVGAGRNWAHVNSIAYDAKDDSIILSSRHQGIVKIGRDKQVKWILAPSKGWNKQLASKLLKPVDDHGKPLTCDENGKCKDTDFDFTYTQHTAWLSSKGTLTVFDNGDGRGLEQPALPTMKYSRFVEYKIDEKKGTVQQVWEYGKERGYDFYSPITSVVEYQKDRDTMFGFGGSINLFDVGKPTVGKLNEIDYKTKEVKVEIDVLSDKPNQTHYRALLVHPTQMFKLEHHHHHH	not failed
MRDEAGSRGIVMQNASANALVPREAARAAPMADIQKIAQHMARLNVAALPRNYELFHEAIIGLNAGLAQDIAALGSQPQQPMLDELGLKYRLAGHCGLAGETSRNEASRMLRDVAERLAEGLRHKNAFARACGTILKSVSGQNDQSLAAFLSEIDYLTASLSTVLAAEMEIGAKLQDDIKTLETLERGISAMQSAAIADRITGLPNRIALNRTIADLYERQEGAAGSALIMVDIDNFTDLNDKYGTQAGNKLLKKLAGLLQKSIKKNDFVARTEGDEFALLFSNVGMQDAIAIAERLRASVEDNLVFATSDKTDRGRLTISIGVALSTDAATPGQLQANARVALLAAQSNPRLPVQAFGR	failed
MRDILFIYLLTLGIKLYAYFLSGFTAILADAFHSVIDITMILILLLSERYAEKEADYQHPFGHEMARNVASLAVGVGFITFMFFELMKEGLLKVLHPASGYSNVEVALGAEVAVLALLVIAALISARRSGILNRTLLVESLNDSLSTLAAIVGVGLVWAGYPIFDGIATIAIAFIIFYNSFRLVRDNARLLIGMSPSEDFYRSVEDACLEIERVKGVHDMVGVYTGENSVHLDLHVTVDGAMTIEEADKLSVEIAEAIMAKHPEVKHISVHFCPHDGRRRKLY	failed
MRDRGDKPAEAGLGLTQTRQEDPAAMIDLYYAPTPNGWKISIMLEECGLPYKVVPMQLGRGDQHQPGFLKLSPNGRMPAIVDHAPIGGGAPLSVFESGAILIYLAEKSGQLMPTETRARFEVMQWLMWQMAGLGPMLGQNGHFLLYAPEKIPYAIDRYSREAKRLYGVLDQRLADRACIAGDYSIADIACFPWIMTHKAQGLTLDDYPNIKRWYAALRARPKLQAGLALGKEDKKPMDEQARKLLFGVDKPAHADAQAQSAQQQ	not failed
MRDRRAPSPCGWRSGRNDLRPARLDLAISAAMRTNSAPQPEGDADQPPSPSTPPAGPPPRRRFGFARRLLAPVLSPVAHYARRYLQASVEHELRQTQGQLHALSAELNAAQARIDHNRELMHLMLQQQQASAVAMQSVLAQLARIEGHSARAEDHGIRIEGLSRKLDGDIAGLPGVFGPRFDELEIKQRPLIAYDDESMAIRMRDGYVLAPRNLPTFVTMLANATSRGLEPGTGDVLRRLVQPGMVVADVGANIGLLTLVMAWATGPGGRVIAFEPEAIPRSNLEKMKHLNGLSWVEVRDQAVGERAGRLTFHVSDIIGHSSLYALPDAEEARTVEVEVVRLDDVAPAKRLDVVKIDVEGAELDVLAGMKGVIAKNPDLAIIAEFGPEHLARVGQTPVQWFKAFGDAGFKAYMINETSGDCEPTSAKAATTVVSANIAFVRAGGDAEMRLLGR	failed
